Reference: publication PMC7092541, “Characterization of a novel family VIII esterase EstM2 from soil metagenome capable of hydrolyzing estrogenic phthalates” (Microbial Cell Factories, 2020)

Experiments:
Assay in all cases: purified protein
[1] = system: O=C(O)c1ccccc1C(=O)Oc1ccccc1; details: 50 mM Tris-HCl pH 8.0, 37 °C, substrate 0.1-10 mM (unit defined at 25 °C)
[2] = system: O=C(Oc1ccccc1)c1ccccc1C(=O)Oc1ccccc1; details: 50 mM Tris-HCl pH 8.0, 37 °C, substrate 0.1-10 mM (unit defined at 25 °C)
[3] = system: CCCC(=O)Oc1ccc([N+](=O)[O-])cc1; details: 50 mM Tris-HCl pH 8.0, 1% acetonitrile
[4] = system: CCCCOC(=O)c1ccccc1C(=O)OCCCC; details: 50 mM Tris-HCl pH 8.0, 37 °C, substrate 0.1-10 mM (unit defined at 25 °C)
[5] = system: O=C(O)c1ccccc1C(=O)OCc1ccccc1; details: 50 mM Tris-HCl pH 8.0, 37 °C, substrate 0.1-10 mM (unit defined at 25 °C)
COC(=O)c1ccccc1C(=O)OC = details: 50 mM Tris-HCl pH 8.0, 37 °C, substrate 0.1-10 mM (unit defined at 25 °C)
[6] = system: CCCCCC(=O)Oc1ccc([N+](=O)[O-])cc1; details: 50 mM Tris-HCl pH 8.0, 1% acetonitrile
[7] = system: CCCCOC(=O)c1ccccc1C(=O)OCc1ccccc1; details: 50 mM Tris-HCl pH 8.0, 37 °C, substrate 0.1-10 mM (unit defined at 25 °C)
[8] = system: CC(=O)Oc1ccc([N+](=O)[O-])cc1; details: 50 mM Tris-HCl pH 8.0, 1% acetonitrile
COC(=O)c1ccccc1C(=O)O = details: 50 mM Tris-HCl pH 8.0, 37 °C, substrate 0.1-10 mM (unit defined at 25 °C)
CCCCOC(=O)c1ccccc1C(=O)O = details: 50 mM Tris-HCl pH 8.0, 37 °C, substrate 0.1-10 mM (unit defined at 25 °C)
CCOC(=O)c1ccccc1C(=O)O = details: 50 mM Tris-HCl pH 8.0, 37 °C, substrate 0.1-10 mM (unit defined at 25 °C)

EstM2 (uncultured bacterium)
Km [1]: 1060 ± 80 µM
Vmax [1]: 37.6 µmol/min/mg
kcat/Km [1]: 25400 ± 1900 M⁻¹ s⁻¹
Vmax [2]: 45.1 µmol/min/mg
kcat/Km [2]: 54800 ± 3600 M⁻¹ s⁻¹
Km [3]: 440 ± 10 µM
Vmax [3]: 905 µmol/min/mg
kcat/Km [3]: 1.46e+06 ± 34200 M⁻¹ s⁻¹
Km [4]: 620 ± 40 µM
Vmax [4]: 72.9 µmol/min/mg
kcat/Km [4]: 84200 ± 5100 M⁻¹ s⁻¹
Km [5]: 1120 ± 80 µM
Vmax [5]: 43.8 µmol/min/mg
kcat/Km [5]: 28000 ± 2000 M⁻¹ s⁻¹
Km (COC(=O)c1ccccc1C(=O)OC): 1020 ± 80 µM
Vmax (COC(=O)c1ccccc1C(=O)OC): 42.1 µmol/min/mg
kcat/Km (COC(=O)c1ccccc1C(=O)OC): 29600 ± 2300 M⁻¹ s⁻¹
Km [6]: 280 ± 20 µM
Vmax [6]: 71.4 µmol/min/mg
kcat/Km [6]: 183000 ± 10700 M⁻¹ s⁻¹
Km [7]: 640 ± 40 µM
Vmax [7]: 57.6 µmol/min/mg
kcat/Km [7]: 64500 ± 3800 M⁻¹ s⁻¹
Km [8]: 410 ± 10 µM
Vmax [8]: 748 µmol/min/mg
kcat/Km [8]: 1.29e+06 ± 32500 M⁻¹ s⁻¹
Km (COC(=O)c1ccccc1C(=O)O): 1950 ± 150 µM
Vmax (COC(=O)c1ccccc1C(=O)O): 41.3 µmol/min/mg
kcat/Km (COC(=O)c1ccccc1C(=O)O): 15200 ± 1200 M⁻¹ s⁻¹
Km (CCCCOC(=O)c1ccccc1C(=O)O): 1260 ± 80 µM
Vmax (CCCCOC(=O)c1ccccc1C(=O)O): 56.7 µmol/min/mg
kcat/Km (CCCCOC(=O)c1ccccc1C(=O)O): 32200 ± 2200 M⁻¹ s⁻¹
Km (CCOC(=O)c1ccccc1C(=O)O): 1730 ± 130 µM
Vmax (CCOC(=O)c1ccccc1C(=O)O): 54.2 µmol/min/mg
kcat/Km (CCOC(=O)c1ccccc1C(=O)O): 22500 ± 1600 M⁻¹ s⁻¹
